According to patent US20250334594A1 (ELEDON PHARMACEUTICALS, published 2025):
One block for each molecule: values may come before it.

What was measured:
[1] = molecular target: recombinant human FcγRI (human) (UniProt P12314); experiment: ELISA: antibody coated (2 µg/ml), recombinant human FcγRI titrated, mouse anti-CD64 + HRP anti-mouse IgG, A450
[2] = molecular target: control protein CTLA4-IgG1 (UniProt P16410 38-161, limits assumed); experiment: sandwich ELISA: protein coated (2 µg/ml), huCD40L titrated, biotinylated goat anti-CD40L polyclonal + streptavidin-HRP, A450
control protein CTLA4-IgG1, sequence (P16410 other isoform, or with tags, fused parts or gaps limits assumed): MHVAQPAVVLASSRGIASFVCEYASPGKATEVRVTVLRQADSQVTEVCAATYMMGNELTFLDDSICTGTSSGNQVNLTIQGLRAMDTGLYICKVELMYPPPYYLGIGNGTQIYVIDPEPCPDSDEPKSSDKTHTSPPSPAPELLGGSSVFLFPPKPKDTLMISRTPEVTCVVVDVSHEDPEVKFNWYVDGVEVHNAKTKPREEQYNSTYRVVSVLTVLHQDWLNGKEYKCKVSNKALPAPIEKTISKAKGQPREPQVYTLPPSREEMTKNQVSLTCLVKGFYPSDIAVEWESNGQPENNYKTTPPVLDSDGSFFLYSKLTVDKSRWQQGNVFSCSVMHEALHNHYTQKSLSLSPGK
Protocol: All washes were performed using 3 washes of 250 μl of PBS. […] The plate was washed and then blocked with 2% bovine serum albumin/PBS for 1 hour at room temperature. The plate was washed and recombinant human CD40L protein (Santa Cruz Biotechnology, Santa Cruz, California, USA) was added to the plate titrated out by 2-fold dilution starting at 2000 ng/ml. After binding and washing, the bound CD40L protein was detected using 100 μl a biotinylated goat anti-human CD40L polyclonal antibody (200 ng/ml) and 100 μl a streptavidin-horseradish peroxidase conjugate at 100 ng/ml. Colorimetric detection was performed with the chromagen TMB (3,3′,5,5′-tetramethylbenzidine) and spectrophotometric analysis of absorption at 450 nm.

recombinant human FcγRI (human), sequence (P12314 16-288 limits assumed): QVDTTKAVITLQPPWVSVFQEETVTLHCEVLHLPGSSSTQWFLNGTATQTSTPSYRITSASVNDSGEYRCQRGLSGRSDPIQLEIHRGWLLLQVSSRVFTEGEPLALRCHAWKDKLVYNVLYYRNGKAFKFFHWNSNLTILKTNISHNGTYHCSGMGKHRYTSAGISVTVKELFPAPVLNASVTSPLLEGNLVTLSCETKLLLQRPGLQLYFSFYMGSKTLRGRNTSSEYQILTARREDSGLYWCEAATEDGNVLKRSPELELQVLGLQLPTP

EC50 (read off the curve) [1]: 0.2 mg/L
Molecule: anti-CD40L antibody 5c8 (reference antibody)

binding result [2]: no binding (tested: 2 micrograms/mL)
B1: recombinant human CD40L protein (Santa Cruz Biotechnology) (ligand, UniProt P29965 113-261, looked up)
chain: MQKGDQNPQIAAHVISEASSKTTSVLQWAEKGYYTMSNNLVTLENGKQLTVKRQGLYYIYAQVTFCSNREASSQAPFIASLCLKSPGRFERILLRAANTHSSAKPCGQQSIHLGGVFELQPGASVFVNVTDPSQVSHGTGFTSFGLLKL
notes: Bought reagent; also called CD154
